# Test results taken from publication PMC5816668, “Insights into the inhibitory mechanisms of NADH on the αγ heterodimer of human NAD-dependent isocitrate dehydrogenase” (Scientific Reports, 2018).
# B1: αγ heterodimer of human NAD-IDH (Homo sapiens) (protein)
# chain 1: TGGVQTVTLIPGDGIGPEISAAVMKIFDAAKAPIQWEERNVTAIQGPGGKWMIPSEAKESMDKNKMGLKGPLKTPIAAGHPSMNLLLRKTFDLYANVRPCVSIEGYKTPYTDVNIVTIRENTEGEYSGIEHVIVDGVVQSIKLITEGASKRIAEFAFEYARNNHRSNVTAVHKANIMRMSDGLFLQKCREVAESCKDIKFNEMYLDTVCLNMVQDPSQFDVLVMPNLYGDILSDLCAGLIGGLGVTPSGNIGANGVAIFESVHGTAPDIAGKDMANPTALLLSAVMMLRHMGLFDHAARIEAACFATIKDGKSLTKDLGGNAKCSDFTEEICRRVKDLD
# chain 2: FSEQTIPPSAKYGGRHTVTMIPGDGIGPELMLHVKSVFRHACVPVDFEEVHVSSNADEEDIRNAIMAIRRNRVALKGNIETNHNLPPSHKSRNNILRTSLDLYANVIHCKSLPGVVTRHKDIDILIVRENTEGEYSSLEHESVAGVVESLKIITKAKSLRIAEYAFKLAQESGRKKVTAVHKANIMKLGDGLFLQCCREVAARYPQITFENMIVDNTTMQLVSRPQQFDVMVMPNLYGNIVNNVCAGLVGGPGLVAGANYGHVYAVFETATRNTGKSIANKNIANPTATLLASCMMLDHLKLHSYATSIRKAVLASMDNENMHTPDIGGQGTTSEAIQDVIRHIRVINGRAVEA
# notes: E. coli BL21(DE3) Codon-Plus co-expression from pQlinkN-α-γ-tev-His6; C-terminal His6 of gamma cut with TEV protease; alpha 37 kDa, gamma 39 kDa; heterodimer
# Substrate: NC(=O)c1ccc[n+]([C@@H]2O[C@H](COP(=O)(O)OP(=O)(O)OC[C@H]3O[C@@H](n4cnc5c(N)ncnc54)[C@H](O)[C@@H]3O)[C@@H](O)[C@H]2O)c1
# Assay: purified protein
# Type: biochemical, Homo sapiens
# Settings: 33 mM Tris-acetate pH 7.4, 2 mM Mn2+, 20 mM DL-isocitrate, 25 °C, no NADH, Michaelis-Menten fit, varied: cofactor
protein,measurement,value
B1,K0.5,0.267 ± 0.002 mM
